Source: US8389676B2, “Biotinylation tag peptides” (Pacific Biosciences of California, Inc., priority 2010, dated 2013)
No end group written: not given here.

Target: streptavidin (Streptomyces avidinii, UniProt P22629)
Assay: Degree of biotinylation assessed by HPLC as fraction bound to streptavidin
Assay type: binding
Conditions: fusion protein biotinylation peptide-His(10)-phi29 pol, biotinylated in vivo in E. coli co-expressing biotin ligase, Ni-NTA purified, 2-fold molar excess of streptavidin
Experimental: Each of the DNA sequences encoding the affinity peptides was added individually to the 5′ terminus of a His(10)-tagged phi29 DNA polymerase gene such that the polypeptide expressed from each construct was a fusion protein consisting of: N-terminus-biotinylation peptide-His(10)-phi29 pol-C-terminus. Each gene was expressed in E. coli cells co-expressing biotin ligase in culture medium containing biotin. These conditions are known to effect the in-vivo biotinylation of biotinylation peptides. Proteins were purified using Ni-NTA columns and then mixed with a 2-fold molar excess of streptavidin under conditions known to effect binding of streptavidin to biotinylated fusion proteins.
The degree of biotinylation of each protein was assessed by HPLC. […] None of the biotinylation peptides affected the polymerase activity when tested in a branching fraction assay performed, for example, as described in U.S. patent application No. 2010/0112645.

Chain of streptavidin (P22629 25-183, species assumed): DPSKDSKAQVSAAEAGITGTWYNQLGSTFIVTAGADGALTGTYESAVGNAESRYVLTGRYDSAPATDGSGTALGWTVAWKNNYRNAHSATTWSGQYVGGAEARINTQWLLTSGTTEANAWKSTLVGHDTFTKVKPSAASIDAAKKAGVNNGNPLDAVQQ

Row | Molecule | degree of biotinylation: bound to streptavidin
1 | Leu Asn Asp Leu Phe His Ala Gln Lys Ile Glu Trp His (protein, biotinylation peptide tested as N-terminal fusion: biotinylation peptide-His(10)-phi29 pol) LNDLFHAQKIEWHHHHHHHHHHHMKHMPRKMYSCDFETTTKVEDCRVWAYGYMNIEDHSEYKIGNSLDEFMAWVLKVQADLYFHNLKFDGAFIINWLERNGFKWSADGLPNTYNTIISRMGQWYMIDICLGYKGKRKIHTVIYDSLKKLPFPVKKIAKDFKLTVLKGDIDYHKERPVGYKITPEEYAYIKNDIQIIAEALLIQFKQGLDRMTAGSDSLKGFKDIITTKKFKKVFPTLSLGLDKEVRYAYRGGFTWLNDRFKEKEIGEGMVFDVNSLYPAQMYSRLLPYGEPIVFEGKYVWDEDYPLHIQHIRCEFELKEGYIPTIQIKRSRFYKGNEYLKSSGGEIADLWLSNVDLELMKEHYDLYNVEYISGLKFKATTGLFKDFIDKWTYIKTTSEGAIKQLAKLMLNSLYGKFASNPDVTGKVPYLKENGALGFRLGEEETKDPVYTPMGVFITAWARYTTITAAQACYDRIIYCDTDSIHLTGTEIPDVIKDIVDPKKLGYWAHESTFKRAKYLRQKTYIQDIYMKEVDGKLVEGSPDDYTDIKFSVKCAGMTDKIKKEVTFENFKVGFSRKMKPKPVQVPGGVVLVDDTFTIK | approximately 50%
2 | Leu Asn Asp Ile Val Glu Ala Gln Lys Ile Glu Trp His (protein, biotinylation peptide tested as N-terminal fusion: biotinylation peptide-His(10)-phi29 pol) LNDIVEAQKIEWHHHHHHHHHHHMKHMPRKMYSCDFETTTKVEDCRVWAYGYMNIEDHSEYKIGNSLDEFMAWVLKVQADLYFHNLKFDGAFIINWLERNGFKWSADGLPNTYNTIISRMGQWYMIDICLGYKGKRKIHTVIYDSLKKLPFPVKKIAKDFKLTVLKGDIDYHKERPVGYKITPEEYAYIKNDIQIIAEALLIQFKQGLDRMTAGSDSLKGFKDIITTKKFKKVFPTLSLGLDKEVRYAYRGGFTWLNDRFKEKEIGEGMVFDVNSLYPAQMYSRLLPYGEPIVFEGKYVWDEDYPLHIQHIRCEFELKEGYIPTIQIKRSRFYKGNEYLKSSGGEIADLWLSNVDLELMKEHYDLYNVEYISGLKFKATTGLFKDFIDKWTYIKTTSEGAIKQLAKLMLNSLYGKFASNPDVTGKVPYLKENGALGFRLGEEETKDPVYTPMGVFITAWARYTTITAAQACYDRIIYCDTDSIHLTGTEIPDVIKDIVDPKKLGYWAHESTFKRAKYLRQKTYIQDIYMKEVDGKLVEGSPDDYTDIKFSVKCAGMTDKIKKEVTFENFKVGFSRKMKPKPVQVPGGVVLVDDTFTIK | approximately 50%
